In patent publication US20140194320, “METHOD FOR PREPARING NUCLEIC ACID APTAMER” (TAGCYX BITOECNOLOGIES, published 2014) one finds Kd data, which are given here for 8 molecules.

Data set [1] has as its target T1, NF-κB p50 (rhNF-κB) (Homo sapiens, UniProt P19838 P19838:1-433). The experiment in a line: SPR; PBS, 0.05% Nonidet P-40, 2.5 mM DTT, 25 C; Example 2 text gives range 2.1 to 3.5 pM. The settings on record: tags: Promega; chain copies: 2 (inferred); hairpin stem with non-Watson-Crick pairs; 95 mer. The procedure:
(§1) The binding ability of each NF-κB p50-binding DNA aptamer clone for NF-κB p50 was determined by the surface plasmon resonance (SPR) method using BIACORE 3000 (GE Healthcare Japan Corp.). The assay in the SPR method was conducted with a temperature set to 25° C. using buffer A as a running buffer. Specifically, DNA probes (21 mer) (SEQ ID NO: 30) each having a nucleotide sequence complementary to the 3′-terminal region of each clone and having a biotinylated base at the 5′ end were immobilized onto a streptavidin-coated sensor chip (SA chip). Then, 60 μL (corresponding to 12 minutes) of a solution of each single-stranded DNA clone (95 mer) diluted to 50 nM with PBS was injected thereto at a flow rate of 5 μL/min to immobilize the clone onto the SA chip through hybridization with the probe.

The target of data set [2] is T1, NF-κB p50 (rhNF-κB). The experiment in a line: SPR; PBS, 0.05% Nonidet P-40, 2.5 mM DTT, 25 C. The settings on record: tags: Promega, chain copies: 2 (inferred). On the procedure: as §1
(§2) Single-stranded DNA variants (68 mer, SEQ ID NOs: 31, 32, and 33; free from a sequence comprising the 5′-terminal primer sequence region) of each NF-κB p50-binding DNA aptamer clone were analyzed for their binding ability by the same SPR method as in Example 2. […] These single-stranded DNA variants used in binding analysis were prepared by chemical synthesis and gel purification. In the diagram, Cont-68 (SEQ ID NO: 34) corresponds to a single-stranded DNA in which the strands of a double-stranded DNA comprising a known NF-κB p50-binding consensus sequence were linked via adenine tetraloop (AAAA). For SPR analysis, each of these single-stranded DNAs was immobilized onto the SA chip through hybridization with probes by the injection of 20 μL (corresponding to 1 minute) of a solution of each DNA fragment (68 mer) diluted to 250 nM with PBS at a flow rate of 20 μL/min.
For orientation: SPR reads the build-up and loss of mass on a sensor chip optically.

Data set [3] deals with T1, NF-κB p50 (rhNF-κB). The experiment in a line: SPR; PBS, 0.05% Nonidet P-40, 2.5 mM DTT, 25 C; natural consensus hairpin control. The settings on record: tags: Promega, chain copies: 2 (inferred), known NF-κB consensus duplex strands linked via AAAA tetraloop. On the procedure:
as §1
as §2, with “For SPR analysis, each of these single-stranded DNAs was immobilized onto the SA chip through hybridization with probes by the injection of 20 μL (corresponding to 1 minute) of a solution of each DNA fragment (68 mer) diluted to 250 nM with PBS at a flow rate of 20 μL/min.” left out

Data set [4] deals with T1, NF-κB p50 (rhNF-κB). In words: SPR; PBS, 0.05% Nonidet P-40, 2.5 mM DTT, 25 C; Example 3 text gives range 5.7 to 8.7. The settings on record: tags: Promega; chain copies: 2 (inferred); hairpin stem with two G-T and three G-A pairs. On the procedure: as §1
as §2, with “For SPR analysis, each of these single-stranded DNAs was immobilized onto the SA chip through hybridization with probes by the injection of 20 μL (corresponding to 1 minute) of a solution of each DNA fragment (68 mer) diluted to 250 nM with PBS at a flow rate of 20 μL/min.” left out

In data set [5] the target is T1, NF-κB p50 (rhNF-κB). The experiment in a line: SPR; PBS, 0.05% Nonidet P-40, 2.5 mM DTT, 25 C; dissociation rate 10 times larger than 5R01-68. The settings on record: tags: Promega; chain copies: 2 (inferred); hairpin.
Data set [6] has as its target T1, NF-κB p50 (rhNF-κB). The experiment in a line: SPR; PBS, 0.05% Nonidet P-40, 2.5 mM DTT, 25 C; immobilized by hybridization to biotinylated probe. To be noted: tags: Promega; chain copies: 2 (inferred); hairpin stem with non-Watson-Crick G-A and G-T pairs. The procedure:
as §1

T1 sequence (P19838 1-433, one chain of several): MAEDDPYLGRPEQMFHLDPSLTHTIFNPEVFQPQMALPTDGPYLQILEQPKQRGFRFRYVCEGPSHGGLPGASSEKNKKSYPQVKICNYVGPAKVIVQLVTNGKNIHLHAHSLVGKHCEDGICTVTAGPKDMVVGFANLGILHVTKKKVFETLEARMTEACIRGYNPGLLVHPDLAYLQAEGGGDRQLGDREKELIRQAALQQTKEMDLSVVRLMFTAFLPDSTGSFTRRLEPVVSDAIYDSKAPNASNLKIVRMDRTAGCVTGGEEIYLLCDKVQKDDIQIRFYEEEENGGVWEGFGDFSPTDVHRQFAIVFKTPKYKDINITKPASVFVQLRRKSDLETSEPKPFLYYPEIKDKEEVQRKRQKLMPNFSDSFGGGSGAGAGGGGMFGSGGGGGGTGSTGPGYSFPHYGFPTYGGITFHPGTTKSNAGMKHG

B1: 5R14 (ssDNA)
DNA: GTAGTCACTAATCCGTTCGAGTCATGCCACGGGGTTTCACTGTTTCGTAGATTGCATAAGGGGAAACACTGTGGACTGATACGATCGATTGACAG
By Kd is commonly meant the concentration at which binding is half-saturated. A low value points to tighter binding. For the molecule B1, the dissociation constant (Kd) in the data set with NF-κB p50 (rhNF-κB) [1] stood at 6.6 pM.

B2: 5R05-68 (ssDNA)
DNA: TGTAACGTAGGGGTTTCACCAACACTGCGGGAAACACTGAAGCGTGGACTGATACGATCGATTGACAG
In the data set with NF-κB p50 (rhNF-κB) [2] (hairpin), B2 displayed a dissociation constant Kd of 7.2 pM.

B3: 5R14-68 (ssDNA)
DNA: CACGGGGTTTCACTGTTTCGTAGATTGCATAAGGGGAAACACTGTGGACTGATACGATCGATTGACAG
Consider B3, for which, in the data set with NF-κB p50 (rhNF-κB) [2] (hairpin), the Kd stood at 8.7 pM.

B4: Cont-68 (ssDNA)
DNA: CCTTGAAGGGATTTCCCTCCAAAAGGAGGGAAATCCCTTCAAGGTGGACTGATACGATCGATTGACAG
Molecule B4 gave a Kd in the data set with NF-κB p50 (rhNF-κB) [3] of 3500 pM.

B5: 5R01-68 (ssDNA)
DNA: CGGGGAATCACTGTAGGGACATTACGCAGGGGATTCACTAGGAGTGGACTGATACGATCGATTGACAG
The molecule B5 came in with a Kd with NF-κB p50 (rhNF-κB) [4] of 5.4 pM.

B6: 5R01mut-68 (ssDNA)
DNA: CGGGGAATCCCCGTAGGGACATTACGCCGGGGATTCCCCAGGAGTGGACTGATACGATCGATTGACAG
The molecule B6 yielded a Kd with NF-κB p50 (rhNF-κB) [5] of 140 pM.

B7: 5R05 (ssDNA)
DNA: GTAGTCACTAATCCGTTCGAGTCATGCTGTAACGTAGGGGTTTCACCAACACTGCGGGAAACACTGAAGCGTGGACTGATACGATCGATTGACAG
B7 showed a Kd in the data set with NF-κB p50 (rhNF-κB) [2] (hairpin stem with non-Watson-Crick pairs, 95 mer) of 2.1 pM.

B8: 5R01 (ssDNA)
DNA: GTAGTCACTAATCCGTTCGAGTCATGCCGGGGAATCACTGTAGGGACATTACGCAGGGGATTCACTAGGAGTGGACTGATACGATCGATTGACAG
The molecule B8 yielded an equilibrium dissociation constant (Kd) in the data set with NF-κB p50 (rhNF-κB) [6] of 3.5 pM.
